Assays:
[1] = molecular target: T1, human CD203c expressed on the surface of KU812 cells (human, UniProt O14638 1-875); experiment: flow cytometry on KU812 cells
T1 construct: whole, on cells; also called cell-surface CD203c; cell surface CD203c on KU812 cells
T1 sequence (looked up): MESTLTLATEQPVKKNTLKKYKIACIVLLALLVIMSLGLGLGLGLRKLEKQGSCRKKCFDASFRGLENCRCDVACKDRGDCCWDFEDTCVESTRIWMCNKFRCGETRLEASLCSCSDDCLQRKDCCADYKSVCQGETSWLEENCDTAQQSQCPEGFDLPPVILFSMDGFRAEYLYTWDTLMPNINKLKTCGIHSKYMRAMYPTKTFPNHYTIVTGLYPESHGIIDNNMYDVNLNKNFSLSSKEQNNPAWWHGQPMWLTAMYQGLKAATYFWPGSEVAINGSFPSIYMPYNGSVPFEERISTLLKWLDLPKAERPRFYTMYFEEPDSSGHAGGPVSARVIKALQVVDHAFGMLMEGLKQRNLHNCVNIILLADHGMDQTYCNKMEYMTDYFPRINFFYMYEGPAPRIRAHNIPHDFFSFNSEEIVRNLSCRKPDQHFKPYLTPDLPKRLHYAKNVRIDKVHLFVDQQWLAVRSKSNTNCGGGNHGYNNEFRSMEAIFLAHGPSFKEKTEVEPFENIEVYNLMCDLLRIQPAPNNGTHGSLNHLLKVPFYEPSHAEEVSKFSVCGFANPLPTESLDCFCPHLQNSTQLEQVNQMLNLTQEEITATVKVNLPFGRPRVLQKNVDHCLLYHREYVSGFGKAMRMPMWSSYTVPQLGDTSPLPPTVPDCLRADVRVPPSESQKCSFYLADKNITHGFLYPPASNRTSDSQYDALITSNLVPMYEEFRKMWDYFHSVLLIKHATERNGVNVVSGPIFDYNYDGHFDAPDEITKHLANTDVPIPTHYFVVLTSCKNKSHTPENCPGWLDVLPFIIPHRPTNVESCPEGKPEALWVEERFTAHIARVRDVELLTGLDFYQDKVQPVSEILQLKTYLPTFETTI
Description: All treatments were performed on cells seeded in T75 flasks at a seeding density of 0.3e6/ml. Cells were cultured in the presence of 80 ng/ml of SCF and treated with 20 ng/ml of IL3 24 hours prior to antibody staining. Following SCF/IL3 treatment, cells were harvested and stained with live dead stain (Zombie UV Biolegend 423108). Cells were then stained with a titration of anti-CD203c antibodies/bispecifics or respective isotype controls in a 5-fold dilution series starting at 50 μg/mL and detected with Anti human-Fc AF647 antibody (JIR 109-605-098). Samples were subsequently run on a Yeti analyzer, gating on 10K live cells. Subsequent analysis was performed using FlowJo software and data represented as MFI (median fluorescent intensity).

[2] = molecular target: T2, human CD203c His-tagged recombinant protein (human, UniProt O14638 49-875, limits assumed); experiment: direct binding ELISA on coated recombinant human CD203c
T2 construct: also called ENPP3; not shown: His tag
T2 sequence (looked up): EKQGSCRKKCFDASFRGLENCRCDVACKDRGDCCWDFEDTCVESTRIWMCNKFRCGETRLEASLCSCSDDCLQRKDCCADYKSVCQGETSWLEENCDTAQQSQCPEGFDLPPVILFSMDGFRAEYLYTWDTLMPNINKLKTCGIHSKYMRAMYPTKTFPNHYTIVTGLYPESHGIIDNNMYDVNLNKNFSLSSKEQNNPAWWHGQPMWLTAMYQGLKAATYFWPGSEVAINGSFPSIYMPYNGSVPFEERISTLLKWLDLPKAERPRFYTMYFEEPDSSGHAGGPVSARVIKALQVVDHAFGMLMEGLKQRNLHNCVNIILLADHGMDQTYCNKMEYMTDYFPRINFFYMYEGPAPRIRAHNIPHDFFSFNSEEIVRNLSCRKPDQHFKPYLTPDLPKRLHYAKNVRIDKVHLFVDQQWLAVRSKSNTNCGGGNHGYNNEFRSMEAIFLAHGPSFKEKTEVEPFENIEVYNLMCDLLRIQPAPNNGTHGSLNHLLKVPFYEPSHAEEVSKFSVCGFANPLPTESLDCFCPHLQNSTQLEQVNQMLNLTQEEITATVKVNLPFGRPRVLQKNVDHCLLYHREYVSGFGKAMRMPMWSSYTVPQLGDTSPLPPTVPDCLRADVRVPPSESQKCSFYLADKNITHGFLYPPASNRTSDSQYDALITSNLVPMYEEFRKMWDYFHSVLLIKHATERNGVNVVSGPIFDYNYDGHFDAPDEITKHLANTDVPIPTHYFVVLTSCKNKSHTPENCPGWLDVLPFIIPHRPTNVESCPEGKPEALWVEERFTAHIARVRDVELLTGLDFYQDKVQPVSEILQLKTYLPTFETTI
Description: (§1) Binding and cross-reactivity of the molecules to the human, rhesus, and cynomolgus CD203c was initially assessed by binding ELISA. The human CD203c His-tagged recombinant protein and the rhesus monkey CD203c His-tagged recombinant protein were coated to the surface of MaxiSorp™ flat-bottom 96 well plates at a concentration of 1 μg/ml. The purified samples were titrated in 5-fold serial dilutions starting from 100 nM and allowed to bind to the coated antigens. The IgGs were detected using mouse anti-human IgG conjugated to horseradish peroxidase. Binding signals were visualized with 3,3′,5,5′-Tetramethylbenzidine Substrate Solution (TMB) and the absorbance measured at 450 nm.

[3] = molecular target: T3, rhesus monkey CD203c His-tagged recombinant protein (rhesus monkey, UniProt F6TH66 31-874); experiment: direct binding ELISA on coated recombinant rhesus CD203c
T3 construct: also called rhesus CD203c; not shown: His tag
T3 sequence: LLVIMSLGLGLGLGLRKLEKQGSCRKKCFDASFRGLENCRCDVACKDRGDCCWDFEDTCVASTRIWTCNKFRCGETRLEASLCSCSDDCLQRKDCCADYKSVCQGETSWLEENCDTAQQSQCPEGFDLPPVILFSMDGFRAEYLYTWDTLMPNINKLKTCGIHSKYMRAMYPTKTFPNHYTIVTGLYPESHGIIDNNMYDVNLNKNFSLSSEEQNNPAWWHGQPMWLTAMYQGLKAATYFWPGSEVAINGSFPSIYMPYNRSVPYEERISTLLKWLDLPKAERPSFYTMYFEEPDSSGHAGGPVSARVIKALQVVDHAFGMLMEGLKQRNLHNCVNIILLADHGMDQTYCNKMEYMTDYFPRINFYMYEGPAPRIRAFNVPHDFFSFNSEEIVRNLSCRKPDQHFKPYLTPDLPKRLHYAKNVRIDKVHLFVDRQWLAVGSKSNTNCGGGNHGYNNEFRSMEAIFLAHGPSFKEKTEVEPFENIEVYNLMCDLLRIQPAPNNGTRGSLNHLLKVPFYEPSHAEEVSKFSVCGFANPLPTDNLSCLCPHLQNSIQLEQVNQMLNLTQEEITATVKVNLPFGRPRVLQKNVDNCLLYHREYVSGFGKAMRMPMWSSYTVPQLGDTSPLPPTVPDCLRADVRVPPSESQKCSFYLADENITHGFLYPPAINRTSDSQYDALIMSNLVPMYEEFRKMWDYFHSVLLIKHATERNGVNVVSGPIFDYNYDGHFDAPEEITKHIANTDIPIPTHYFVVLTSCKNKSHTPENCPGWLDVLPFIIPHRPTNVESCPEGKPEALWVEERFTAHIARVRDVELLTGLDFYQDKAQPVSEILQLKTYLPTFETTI
Description: as §1

EC50 [1]: 98.2 nM
EC50 (read off the curve) [2]: ~7 nM
binding result [3]: binds
B1: anti-CD203c 1.27 IgG (parental clone, MH1 common light chain) (antibody, V domains shown)
VH: EVQLVQSGAEVKKPGESLKISCKGSGYRFTSYWIGWVRQMPGKGLEWMGIIYPGDSDTRYSPSFQGQVTISADKSISTAYLQWSSLKASDTAMYYCARKDYYYYAMDVWGQGTTVTVSS
VL: DIQMTQSPSSLSASVGDRVTITCRASQGIRTNLAWFQQKPGKAPKSLIYAASSLQSGVPSRFSGSGSGTDFTLTISSLQPEDFATYYCQQYNSYPRTFGGGTKVEIK
notes: IgG1null (human IgG1 with L234A, L235A, G237A) and human Ckappa

— patent US20260028424A1 (GRANULAR THERAPEUTICS, published 2026)
